Test results published in the DeepSol protein solubility set.

Test: soluble on expression in E. coli; label from the status in PepcDB or PDB records

| Sequence | soluble on expression in E. coli |
| --- | --- |
| MLFERIYEEGLAQASYFIGCQREGKAIVVDARRDIQTYLDLAAKNNMVISAVTETHIHADYLSGTRELAAATGAEIFLSGEGGADWQYGFTGTTLMHNSTIKLGNITITAKHTPGHTPEHLSFLITDGAVSKDPGFMLSGDFVFVGDVGRPDLLDEAAGGVDTRFAGAQQLFHSLKEQFLALPDHIQVYPGHGAGSPCGKALGAIPSTTVGYEKANAWWAPYLRSDDEAGFVEELLDGQPDAHAYFARMKKQNKQGPAVLSTLSPLVKLEAEEVVEKLGSEAVFVDTREQNQVHLGTVVGALNIPRGAKASNFAAWVIDPQKDAQDLIVLAPDANTAADFRDALLRVGIDTVRYFTNSIDGLPTFVPELISPAELAETNYDALIDIRAKSEFAAGSIPGAQQLSGGSAMWRLNELPAGGTLVTFCQSGARNTVVANALRRAGFTVIELEGSYAAWEKSAANPLEHHHHHH | soluble |
| MGSDKIHHHHHHMIGVAEVVLDVRDLRIYYRTLYGYVKAVDGVSFDIKRGEILGIAGESGCGKSTLGNGLILLKPPMKYMGGEAILDGKNIMALSPKELRKVRYEKISIIPQYAMDAMNPTKKIKQIIDDLLHEHGESFERKKDVIEERLEIVNLGKKVLNMYPIELSGGMKQRMVMVISTLMNPDVLIADEITSALDVSSQRSVIQMLYEMREKEIMGSLAFITHDLSVLYQIADKVMVLYAGRVAEISPMEDIIQEPLHPYTKMLLSSLPKIGVRYSQTKLKGIPGYPPSLLNIGPGCRFRDRCPYAFEKCEQDPPVFDVDGRKVSCWLFERGDAN | not soluble |
| MAIDYSKWDKIELSDDSDVEVHPNVDKKSFIKWKQQSIHEQRFKRNQDIKNLETQVDMYSHLNKRVDRILSNLPESSLTDLPAVTKFLNANFDKMEKSKGENVDPEIATYNEMVEDLFEQLAKDLDKEGKDSKSPSLIRDAILKHRAKIDSVTVEAKKKLDELYKEKNAHISSEDIHTGFDSSFMNKQKGGAKPLEATPSEALSSAAESNILNKLAKSSVPQTFIDFKDDPMKLAKETEEFGKISINEYSKSQKFLLEHLPIISEQQKDALMMKAFEYQLHGDDKMTLQVIHQSELMAYIKEIYDMKKIPYLNPMELSNVINMFFEKVIFNKDKPMGKESFLRSVQEKFLHIQKRSKILQQEEMDESNAEGVETIQLKSLDDSTELEVNLPDFNSKDPEEMKKVKVFKTLIPEKMQEAIMTKNLDNINKVFEDIPIEEAEKLLEVFNDIDIIGIKAILENEKDFQSLKDQYEQDHEDATMENLSLNDRDGGGDNHEEVKHTADTVD | soluble |
| MDVKPDRVIDARGSYCPGPLMELIKAYKQAKVGEVISVYSTDAGTKKDAPAWIQKSGQELVGVFDRNGYYEIVMKKVK | soluble |
| MGSDKIHHHHHHMGDSMSLDWDKLRIFHAAAEAGSFTHAADKLHLSQSAISRQVSSLEQDVGIKLFHRHARGLILTEQGEMLYRTAHDVLMKLESVKAQLSETTDKPSGKLRITTTVGLGQGWLTDKIQEFMSLYPEIQVQLILDNEELDVNMRHADCAIRLRQPQQSDLIQRKLFTVHMHVYAAPSYINKYGEPQSLDDLDNHRIITFGEPAPNYLLDVNWLEIAGRDSDNPRISHLQINSQTSIKRACLLGIGIAMLPDYIVGRDPGLIQLPISADIPSFDTYFCYPDELKNAAKLKVFRDYIVAKARNWNF | not soluble |
| MGSDKIHHHHHHMDTKFSCVGCGGCCTDHHVPLTLLEARQWAADGGNVIVLTEAFLSNGYGVAQNQLTHATRRSTEVNSGSTTAFVAITFAAYNVGRCRNLDEENLCRIYERRPLVCRIYPMEINPHIPLRPETKGCPPESWEQGPDLIVGDTLVDTQLMSLIEQSRQADRDEIAAKQLICQQLGIRTTALKGNGFVAYLPDMNAFAAAIENVANLAGAAPENSDWEFHVAGQHVVDTLQQEGADVTDREPVSYLFIPLQAA | not soluble |
| MLRPKEACQRLGISYATLREYVKKGYIKPVILQSGKQRFGEEDVERLMGIIRKRKVILYARVSSSTQKDELVNQVKYLEEQVKEYDLVITDIGSGLNMKRKGFLKLLRMILNNEVSRVVVAYPDRLVRVGFEILEEVCKAHNCEIVVLNQEDKEEELVEDLMSALVSFSGKLYGMRSHEYEKVKKCAEELKNWKI | not soluble |
| MSLSQGALYLVPTPIGNLEDMTFRAIRMLKEADIIAAEDTRNTVKLLNHFEITTRMTSYHQFTKENKEDNIIQRMLDGEVVALVSDAGMPSISDPGYELVQSALNANIPVIPLPGANAALTALIASGLAPQPFYFYGFLPRQNKERTQAIEKLAAREETWILYESPHRLKETLKAIIKITGNDRKIVLCRELTKRFEEFLRGTVEDALNWAMDEEVRGEFCLIIEGNANPPLAEEQLWWQELDIKTHVSTVMEQENVSSKDAIKTVMKARNLPKREVYSAYHEIKEGHHHHHH | soluble |
| MIPYRQLVRMSHLAARFVGGADVHVVDPLVDLRNVFEQTDQLKIALECRNLTVDVEKVKNEYDEWFETYQKWKQADKESISQLKKELRAKKDGLLNALALPNLVHHAGKKQTPLLKPSKHAQYLAQQGLMRIDKQNHVVHLVGYPVVVQKMIREQLVDLFPGCQPISPSYFARAAILEALNIDQSTCIPFTDDSSHFPLTYLVGNSLPAITSPFLKTSFGEKNEWPISVQCTGASYTEKKNQVDLGNARQRMKHCALWMSKSAEELEGIINDANVRVGAYLDEGLDLEVKVREVRGSELKNYESQAFVVENRGLSLSRISRIGDYVSKRLNIQYSGSPATEKSEKSDGFVQMVYVETDIDRILARLVDDLIEGKEPPKYIRDAIKKSF | not soluble |
| MGSDKIHHHHHHMMELRYNPLTDEWVIVSAATQKRPVQPSKTECPICVGGLELPEEYDLVTFENRYPSLKKDPPPVNWKEKGPFRKEESRGVCEVVVYTSDHNTALPGMPLKQIEKLVEMWVDRTRDLSQHDFVKYIFIFENRGKEVGASLPHPHGQIYAFPFLPKRIEVKIGAMRKWYEEKRKCPICEVLESEGEERKVYETEHFLALVPFYARFPYEVHIYPKRHVSTLLEFSKEEKKEFAKVLKVVTAKYDKLFDQEFPYMMMFFQAPFNEEDVSHFFHFHVEFNPPKRDRDKLKWMASVETGTWAFINPVVPEEAARQLRETEVEI | not soluble |
| MVTEAMKAKAEVYHGDKTCREKFGSLLSEIGLPNRLLSNKEIKECGYVKDTGFVWLKHKEKKKEDQKRRYQDLLRFDNVVVCFEDEVTAYFEPNRIKKLTGVKAKEFMVWISLGEIQVNRSSGLITFKTEVGLLSKSLPLSVFEDVHGDDHDLKEKPKKELKLNKTKIYLY | not soluble |
| MGSDKIHHHHHHMVSLFKIIQVGDHGEVPGAEVFWMKDFDKWYRLSFYSFLIKTENDQYVLINTGLPDDLSLRNKFLKEWAKSDRCKFQHVEKIENALAKLNITTDDISHIIITPVQDYTIGRIHMFRKAKLYFSKKGWYEDVVTPSPSPFLNRDIYLPRLTREYLFDEAWNRIVLVENQEVIKGIEVKWTGCHHRSSMLVKFNFDKKRWCISDSAFVMNNFEQNIPIGIAEDIYECLNAYDYMRRECDVVIPSYDPENVNRFKEYILK | not soluble |
| MAAPLIPVLTAPTAAGKTALALRLAREYGLEIVAADAFTVYRGLDLGTAKPTPQERASVPHHLLDVVDVTQSYDVAQYAAQAEAAIVDILARGRLPLVVGGTGFYLSALSRGLPLTPPSDPKMRAALEAELQERGLDALLAEIEQANPAEAARMERNPRRVVRALEVYRAAGRFPGEFGYSPPAFQYQVFAFSPPAAEMEQRVQERTAAMLRAGWPQEAQWLAGQVPPEQEPRPTVWQALGYAEALAVAQGRLSLAGAEQAIALATRQYGKRQLTWMRRQLGAEVQSPDAAEAHLRAFLERSGAPSLEHHHHHH | not soluble |
| MIEAALENPVPIKSQLSPTPRYFGSCKWFNVSKGYGFVIDDITGEDLFVHQSNLNMQGFRSLDEGERVSYYIQERSNGKGREAYAVSGEVEGQGLKGSRIHPLGRKKAVSLRCFRCGKFATHKAKSCPNVKTDAKVCYTCGSEEHVSSICPERRRKHRPEQVAAEEAEAARMAAEKSSPTTSDDDIREKNSNSSDE | soluble |
| MGSDKIHHHHHHMTAFNPIAIIPHYNHSATVGSVAEQLNQLGLPVLIVDDGSSLEHKAVIEQFPQNEQLSILFCEINGGKGAAFKAGLKQTQKLGFSHAIQVDADGQHNIIDVKKMLEQAEKSPNAIVCGKPIYGKDAPKSRLYGRKITDFWNAINTLSFDIKDGMCGFRIYPIAQIMPILAQEQIGGGMDFDTEILIHSYWQKIPLIWVDTPVKYEKDGISHFRGWADNWLISKMHARLFFRMLKRLFTGKIR | not soluble |
| MGSDKIHHHHHHMALEDKDLRSIQEVRNLIESANKAQKELAAMSQQQIDTIVKAIADAGYDAREKLAKMAHEETGFGIWQDKVIKNVFASKHVYNYIKDMKTIGMLKEDNEKKVMEVAVPLGVVAGLIPSTNPTSTVIYKTLISIKAGNSIVFSPHPNALKAILETVRIISEAAEKAGCPKGAISCMTVPTIQGTDQLMKHKDTAVILATGGSAMVKAAYSSGTPAIGVGPGNGPAFIERSANIPRAVKHILDSKTFDNGTICASEQSVVVERVNKEAVIAEFRKQGAHFLSDAEAVQLGKFILRPNGSMNPAIVGKSVQHIANLAGLTVPADARVLIAEETKVGAKIPYSREKLAPILAFYTAETWQEACELSMDILYHEGAGHTLIIHSEDKEIIREFALKKPVSRLLVNTPGALGGIGATTNLVPALTLGCGAVGGSSSSDNIGPENLFNIRRIATGVLELEDIRKEENQATPELSVDADALIQSLVEKVLAELK | not soluble |
| MILRTSEETISTVQEKQQNISPLVRERGPQRVAAHITGTRGRSNTLSSPNSKNEKALGRKINSWESSRSGHSFLSNLHLRNGELVIHEKGFYYIYSQTYFRFQEEIKENTKNDKQMVQYIYKYTSYPAPILLMKSARNSCWSKDAEYGLYSIYQGGIFELKENDRIFVSVTNEHLIDMDHEASFFGAFLVG | soluble |
| MSHFLVEKLTKTVGDKTVFQDISFIIHDFDRIGIIGVNGTGKTTLLDVLSGRLGFDGDHSPFSKANDYKIAYLTQDPEFNDAASVLDTVLSADVKAIQLIRQYELLMANYTEDKQESLESLMSEMDRLDAWSIESDVKTVLSKLGITDLEQKVGDLSGGMRRRVQLAQVLLGAADLLLLDEPTNHLDIDTIAWLTTYLKTAKKTVLFITHDRYFLDHVATRIFELDKAGLTEYQGNYQDYVRLKAEQDERDAANLHKKKQLYKQELAWMRTQPQARATKQQARINRFSDLKKEVHQDSSADKLEMTFETSRIGKKVIHFEDLSFAYGDRQLIKDFNLIIQNKDRIGIVGDNGVGKSTLLNIINGDLKPTSGKLDIGDTIRVGYFSQQLKDMDETKRVINYLQEVADEVKTSVGTTSISELLEQFLFPRSSHGTLIAKLSGGEKKRLYLLKLLIEKPNVLLLDEPTNDLDIATLKVLENFLANFAGPVITVSHDRYFLDKVATKILAFEEGDIRVFYGNYSDYLDEKVFEKETVEADLAKTTVTEEVPLPQKEERKRMSYLEKQEWAQIEDKIATIEANIEEIENQMLTVVSDYGQLAQLQKELDQRNNDLLLAYERFEYLSGLDI | not soluble |
| MAHHHHHHMREKTTSAATPMRCRKELAATLTRTRNSPRTPVTFELATERGLHNFSRRGPRVRAKSSIAVHAATASPLSLLEQTLWTEIEQLNAATNRLRERILEVKREFSADAIAAVTGGEPLPVEARTGGLFRNPPKQRGQNSKDEPPYAVTFTPSHSQKKAANVRLQFTSPRKTPMKENDSSVLTSLAMFEYTPQNDDHREGARPTENRNVLQELKRDETFETGTPVHLSEAATMGGPFVVDLQKSDHGAANNTAEKPTELSTSVDSARESAKHLLLQANMMGVEQDLNHYMSDLLAIQRDTLDAQKRGLIDPNDSSVRELRLGIRDELNACRARILTLESLQTSLSAGVATKKTIS | not soluble |
| MKQLAISFCIILPLACFWVLNAEDAKEAPEIREANSTVFRQKRQFGCPSNCYSSCSSSSQCQRYSVASVCVQGCCCPGNNNLDTACSGGPAVAACLGGLCGQGFFCSSNNYCCRCQSGNSTGPCVNQVCPTGFMCNTNNYCCPLGSGGVLGSCVNGVCPTGYTCGAGNLCYLSSGK | not soluble |
